From article PMC4737149, “The autoinhibitory CARD2-Hel2i Interface of RIG-I governs RNA selection”
Changes are numbered by the printed parent chain.

Assays:
[1] = molecular target: T1, RIG-I full length (wt) (human, UniProt O95786 1-925); assay: fluorescence anisotropy; no ATP, 15 C; Buffer A (composition not in the material; 150 mM NaCl stated for some supplementary assays); anisotropy at 15 C with 1-2 nM (blunt) or 40 nM (non-blunt) labell; conditions: protein: recombinant, tags: N-terminal SUMO fusion construct, His (Ni-NTA)
T1 sequence: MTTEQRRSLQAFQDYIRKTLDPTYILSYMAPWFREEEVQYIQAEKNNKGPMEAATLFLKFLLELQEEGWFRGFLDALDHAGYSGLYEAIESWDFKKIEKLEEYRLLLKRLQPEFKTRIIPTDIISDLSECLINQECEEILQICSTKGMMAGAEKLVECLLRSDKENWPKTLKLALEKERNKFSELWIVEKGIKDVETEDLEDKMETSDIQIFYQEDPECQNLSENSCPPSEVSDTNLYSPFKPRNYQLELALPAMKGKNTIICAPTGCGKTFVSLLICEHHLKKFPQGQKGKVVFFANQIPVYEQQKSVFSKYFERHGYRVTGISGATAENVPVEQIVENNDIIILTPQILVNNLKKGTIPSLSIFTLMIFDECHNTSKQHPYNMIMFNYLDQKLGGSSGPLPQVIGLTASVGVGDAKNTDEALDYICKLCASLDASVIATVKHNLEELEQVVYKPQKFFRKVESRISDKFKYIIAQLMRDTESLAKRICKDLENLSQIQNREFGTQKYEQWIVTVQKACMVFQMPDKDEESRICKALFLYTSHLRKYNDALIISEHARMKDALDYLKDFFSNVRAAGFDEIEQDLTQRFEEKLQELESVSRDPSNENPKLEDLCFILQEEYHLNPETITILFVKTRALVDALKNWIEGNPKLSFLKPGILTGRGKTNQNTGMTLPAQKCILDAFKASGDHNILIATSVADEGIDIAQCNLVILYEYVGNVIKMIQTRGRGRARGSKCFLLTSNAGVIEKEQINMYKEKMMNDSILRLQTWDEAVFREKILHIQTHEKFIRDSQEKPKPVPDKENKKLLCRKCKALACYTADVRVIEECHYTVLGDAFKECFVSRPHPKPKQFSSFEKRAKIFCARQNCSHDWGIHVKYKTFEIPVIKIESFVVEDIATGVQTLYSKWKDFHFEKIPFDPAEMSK

[2] = molecular target: T2, RIG-I R109A/L110A (CARD2-Hel2i interface mutant) (human, UniProt O95786 1-925, R109A;L110A); assay: ATPase titration (Kd,app); ATP, 15 C; Buffer A (composition not in the material; 150 mM NaCl stated for some supplementary assays); anisotropy at 15 C with 1-2 nM (blunt) or 40 nM (non-blunt) labell; conditions: protein: recombinant, tags: N-terminal SUMO fusion construct, His (Ni-NTA)
T2 sequence: T1 sequence with R109A, L110A

[3] = molecular target: T3, Helicase-RD (RIG-I lacking CARDs) (human, UniProt O95786 232-925); assay: as above; conditions: protein: recombinant, tags: N-terminal SUMO fusion construct, His (Ni-NTA)
T3 sequence: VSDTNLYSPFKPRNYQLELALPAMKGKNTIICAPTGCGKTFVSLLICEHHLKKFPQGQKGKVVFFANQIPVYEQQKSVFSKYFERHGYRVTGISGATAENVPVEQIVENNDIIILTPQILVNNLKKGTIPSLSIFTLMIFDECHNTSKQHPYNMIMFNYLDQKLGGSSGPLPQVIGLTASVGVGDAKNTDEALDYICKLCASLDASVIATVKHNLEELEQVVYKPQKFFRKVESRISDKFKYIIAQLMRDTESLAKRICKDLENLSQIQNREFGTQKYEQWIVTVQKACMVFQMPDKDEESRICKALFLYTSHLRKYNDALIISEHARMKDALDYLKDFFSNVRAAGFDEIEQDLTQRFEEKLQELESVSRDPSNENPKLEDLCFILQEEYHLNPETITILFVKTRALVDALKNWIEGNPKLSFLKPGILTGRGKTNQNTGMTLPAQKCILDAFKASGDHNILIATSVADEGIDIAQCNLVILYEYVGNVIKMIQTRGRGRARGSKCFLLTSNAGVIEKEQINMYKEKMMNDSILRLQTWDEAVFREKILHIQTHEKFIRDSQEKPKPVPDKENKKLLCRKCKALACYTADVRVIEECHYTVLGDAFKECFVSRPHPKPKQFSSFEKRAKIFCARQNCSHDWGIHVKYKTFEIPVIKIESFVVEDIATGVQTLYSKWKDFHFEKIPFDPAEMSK

[4] = molecular target: T1, RIG-I full length (wt); assay: ATPase titration (Kd,app); ATP, 150 mM NaCl, 37 C; Buffer A (composition not in the material; 150 mM NaCl stated for some supplementary assays); anisotropy at 15 C with 1-2 nM (blunt) or 40 nM (non-blunt) labell; conditions: protein: recombinant, tags: N-terminal SUMO fusion construct, His (Ni-NTA)
[5] = molecular target: T1, RIG-I full length (wt); assay: ATPase titration (Kd,app); ATP, 37 C; Buffer A (composition not in the material; 150 mM NaCl stated for some supplementary assays); anisotropy at 15 C with 1-2 nM (blunt) or 40 nM (non-blunt) labell; conditions: protein: recombinant, tags: N-terminal SUMO fusion construct, His (Ni-NTA)
[6] = molecular target: T3, Helicase-RD (RIG-I lacking CARDs); assay: as above; conditions: protein: recombinant; tags: N-terminal SUMO fusion construct, His (Ni-NTA); single strand
[7] = molecular target: T1, RIG-I full length (wt); assay: ATPase titration (Kd,app); ATP, 15 C; Buffer A (composition not in the material; 150 mM NaCl stated for some supplementary assays); anisotropy at 15 C with 1-2 nM (blunt) or 40 nM (non-blunt) labell; conditions: protein: recombinant, tags: N-terminal SUMO fusion construct, His (Ni-NTA), label: fluorescein on strand 2 in fluorescence assays (5' for anisotropy, 3' for intensity), none in ATPase assays
[8] = molecular target: T4, RIG-I C-terminal repressor domain (RD) (human, UniProt O95786 801-925); assay: fluorescence anisotropy; no ATP, 15 C; Buffer A (composition not in the material; 150 mM NaCl stated for some supplementary assays); anisotropy at 15 C with 1-2 nM (blunt) or 40 nM (non-blunt) labell; conditions: protein: recombinant; tags: N-terminal SUMO fusion construct, His (Ni-NTA); label: fluorescein on strand 2 in fluorescence assays; 3' overhangs 2 nt at both ends, 8 bp
T4 sequence: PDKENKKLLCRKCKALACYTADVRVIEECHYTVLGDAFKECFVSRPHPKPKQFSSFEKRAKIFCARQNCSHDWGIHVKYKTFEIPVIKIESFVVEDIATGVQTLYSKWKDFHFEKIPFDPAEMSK

[9] = molecular target: T1, RIG-I full length (wt); assay: ATPase titration (Kd,app); ATP, 15 C; Buffer A (composition not in the material; 150 mM NaCl stated for some supplementary assays); anisotropy at 15 C with 1-2 nM (blunt) or 40 nM (non-blunt) labell; conditions: protein: recombinant; tags: N-terminal SUMO fusion construct, His (Ni-NTA); label: fluorescein on strand 2 in fluorescence assays; 3' overhangs 2 nt at both ends, 8 bp
[10] = molecular target: T3, Helicase-RD (RIG-I lacking CARDs); assay: stopped-flow kinetics (koff/kon); 15 C; koff 1.5e-3 s-1, kon 6e8 M-1 s-1; Buffer A (composition not in the material; 150 mM NaCl stated for some supplementary assays); anisotropy at 15 C with 1-2 nM (blunt) or 40 nM (non-blunt) labell; conditions: protein: recombinant, tags: N-terminal SUMO fusion construct, His (Ni-NTA), none in ATPase assays
[11] = molecular target: T1, RIG-I full length (wt); assay: ATPase titration (Kd,app); ATP, 15 C; same as Kd without ATP; Buffer A (composition not in the material; 150 mM NaCl stated for some supplementary assays); anisotropy at 15 C with 1-2 nM (blunt) or 40 nM (non-blunt) labell; conditions: protein: recombinant, tags: N-terminal SUMO fusion construct, His (Ni-NTA), none in ATPase assays
[12] = label: 5' fluorescein on strand 2 in fluorescence assays, 5' overhangs 2 nt at both ends, 8 bp
[13] = label: fluorescein on strand 2 in fluorescence assays, 3' overhangs 2 nt at both ends, 8 bp
[14] = hairpin with 5-nt U overhangs at both 5' and 3' ends
[15] = label: fluorescein on strand 2 in fluorescence assays (5' for anisotropy, 3' for intensity), none in ATPase assays, blunt

B1: 5'OH 5'ovg RNA (dsRNA)
RNA 1: CGUGAGACAU
RNA 2: UCAUGUCUCA
- Kd [1, 12]: ~450 nM
- Kd [2, 12]: 64 ± 7 nM
- Kd [3, 12]: ~1.5 nM

B2: 5'ppp RNA 3'F (dsRNA)
RNA 1: CGUGAGACAU
RNA 2: AUGUCUCACG
modifications: 5'-triphosphate on strand 1
- Kd ([4]; label: 3' fluorescein on strand 2): 73 ± 18 nM

B3: 5'OH 3'ovg RNA (dsRNA)
RNA 1: CGUGAGACAU
RNA 2: GUCUCACGUA
- Kd [2, 13]: 121 ± 14 nM
- Kd [3, 13]: ~1.5 nM

Binder: UUUUUGAAUAUAAUAGUGAUAUUAUAUUCUUUUU (structured_RNA) [dsRNA stem (hairpin with two overhangs)]
- Kd [1, 14]: ~450 nM
- Kd [2, 14]: 53 ± 9 nM
- Kd [3, 14]: 0.6 ± 0.4 nM
- Kd [5, 14]: 629 ± 165 nM

Binder: GAAUAUAAUAGUGAUAUUAUAUUC (structured_RNA) [5'OH HP]
- Kd ([5]; hairpin, blunt): 39 ± 4 nM

Binder: CGUGAGACAU (ssRNA, 5'-triphosphate) [5'ppp ss10 RNA]
- Kd [6]: 500 ± 100 nM

B4: 5'OH RNA (10-bp blunt) (dsRNA)
RNA 1: CGUGAGACAU
RNA 2: AUGUCUCACG
- Kd [1, 15]: 6 ± 0.4 nM
- Kd [2, 15]: 0.2 ± 0.3 nM
- Kd [3, 15]: 0.07 nM
- binding signal [7]: ~2.5 fold Kd,app/Kd without ATP

Binder: CGUGAGACAU (ssRNA) [5'OH ss10 RNA]
- Kd [6]: 1600 ± 500 nM

Binder: GAAUAUAAUAGUGAUAUUAUAUUC (structured_RNA, 5'-triphosphate) [5'ppp HP]
- Kd ([5]; hairpin, blunt): 6 ± 0.7 nM

B5: 5'ppp 5'ovg RNA (dsRNA)
RNA 1: CGUGAGACAU
RNA 2: UCAUGUCUCA
modifications: 5'-triphosphate on strand 1
- Kd [2, 12]: 43 ± 5 nM
- Kd [3, 12]: ~0.1 nM

B6: 5'ppp 3'ovg RNA (dsRNA)
RNA 1: CGUGAGACAU
RNA 2: GUCUCACGUA
modifications: 5'-triphosphate on strand 1
- Kd [8]: 165 ± 2 nM
- Kd [1, 13]: 3 ± 0.4 nM
- Kd [2, 13]: 16 ± 4 nM
- Kd [3, 13]: ~0.1 nM
- binding signal [9]: ~16 fold Kd,app/Kd without ATP

B7: 5'ppp RNA (10-bp blunt) (dsRNA)
RNA 1: CGUGAGACAU
RNA 2: AUGUCUCACG
modifications: 5'-triphosphate on strand 1
- Kd [10]: 0.0025 nM
- Kd ([1]; none in ATPase assays, blunt): 0.4 ± 0.2 nM
- binding signal [11]: 1 fold Kd,app/Kd without ATP
- Kd ([4]; none in ATPase assays): 90 ± 29 nM
- Kd ([2]; none in ATPase assays, blunt): 0.1 ± 0.1 nM
